Test results from patent US9725518B2, “Antibodies that bind to Jagged 1” (Cancer Research Technology Limited, priority 2013, dated 2017).
Numbering of substitutions follows the chain as printed. Values belong to the molecule of their own block, whether it stands above or below them.

Key:
[1] = Soluble aggregates of transiently expressed antibodies; type: physicochemical; conditions: Protein A purified antibody
Description: The protein yield of these antibodies, their levels of soluble aggregates and their binding affinity to the immunogen (J1-DE3) are illustrated in (Table 6).

[2] = molecular target: T1, N1 binding to cell surface expressed hJ1 (Homo sapiens, UniProt P78504); assay: Notch binding blocking assay (FACS): N1 EGF11-13 beads staining human J1-expressing cells; parameters: key: +: Complete blocking; X: No blocking
T1 construct: cell expressed full length human J1 (hJ1; HEK293 transfectants); expressed in transfected cells; host or cells: HEK293
Description: To functionally identify mAbs with the capacity to disrupt the J1-N1 protein:protein interaction, hybridoma culture supernatants were tested in a FACS-based binding assay. Biotinylated soluble human N1 EGF11-13 recombinant protein was bound to avidin-coated beads and used to stain J1-expressing cells in the presence or absence of each mAb that recognised cell surface hJ1 by FACS. […] The four blocking antibodies of the invention were also able to block the binding of recombinant […] to a biotin-tagged J1 DSL-EGF3 recombinant protein in an ELISA assay (FIG. 1B). […] The four blocking mAbs of the invention were purified from serum-free culture supernatants and equal concentrations of purified antibodies were used to compare their activity in subsequent assays (unless hybridoma supernatant was specified). Sequence conservation across the DSL domain raised the possibility that the J1 mAbs may also be able to bind the Jagged 2 (J2) protein. Antibody binding specificity was initially tested by immunocytochemical labelling of cytospin samples of hJ1 and hJ2 transfectants (FIG. 2). All antibodies stained J1 transfectants but none stained the J2 transfected cells, and J2 expression in the same experiment was confirmed using a commercial anti-J2 antibody. The specificity of the purified mAbs was further investigated in mammalian cells transfected with hJ2, human Delta-like ligand 4 (hDLL4), or mJ1 (FIG. 3). Transfectants were FACS stained with 10 μg/ml of each of the four blocking mAbs.
To test the blocking efficiencies of the J1 mAbs, purified mAbs were titrated to determine the concentration required to block recombinant N1 binding to cell surface expressed hJ1. Beads coated with a bacterially-expressed N1 EGF11-13 protein were used to stain the hJ1-expressing cells in the presence of various concentrations of mAbs.
The FACS-based binding assay using biotinylated soluble human N1 EGF11-13 recombinant protein bound to avidin-coated fluorescent beads to stain J1-expressing cells was performed using a dilution series of each variant mAb to test their ability to block J1 binding to N1 by FACS (Table 7). […] Thus 12/16 J1-65D1 variants V1-12 and all J1-183D variants have the desired binding and blocking activity.
Human N1 EGF11-13 (411-526) was expressed in E. coli, refolded in vitro and labelled with purple fluorescent avidin-coated beads (Spherotech) as previously described. HEK293 cells transfected with human J1 or B16F10 cells transfected with mouse J1 were stained with N1 fluorescent beads in the presence of J1 antibody supernatants or purified antibody (murine, chimeric or humanised) diluted in HBBS/10% FCS. Cells were washed and re-suspended in staining buffer before being analysed with a FACSCalibur and data analysis with CellQuest. HEK293 cells transfected with human Jagged 2 and B16F10 cells transfected with human and mouse DLL4 were stained similarly to test blocking specificity.

[3] = final antibody concentration 0.2 μg/ml
[4] = final antibody concentration 0.4 μg/ml
[5] = final antibody concentration 0.6 μg/ml
[6] = final antibody concentration 1.0 μg/ml
[7] = final antibody concentration 2.0 μg/ml

T1 sequence (P78504 34-1218): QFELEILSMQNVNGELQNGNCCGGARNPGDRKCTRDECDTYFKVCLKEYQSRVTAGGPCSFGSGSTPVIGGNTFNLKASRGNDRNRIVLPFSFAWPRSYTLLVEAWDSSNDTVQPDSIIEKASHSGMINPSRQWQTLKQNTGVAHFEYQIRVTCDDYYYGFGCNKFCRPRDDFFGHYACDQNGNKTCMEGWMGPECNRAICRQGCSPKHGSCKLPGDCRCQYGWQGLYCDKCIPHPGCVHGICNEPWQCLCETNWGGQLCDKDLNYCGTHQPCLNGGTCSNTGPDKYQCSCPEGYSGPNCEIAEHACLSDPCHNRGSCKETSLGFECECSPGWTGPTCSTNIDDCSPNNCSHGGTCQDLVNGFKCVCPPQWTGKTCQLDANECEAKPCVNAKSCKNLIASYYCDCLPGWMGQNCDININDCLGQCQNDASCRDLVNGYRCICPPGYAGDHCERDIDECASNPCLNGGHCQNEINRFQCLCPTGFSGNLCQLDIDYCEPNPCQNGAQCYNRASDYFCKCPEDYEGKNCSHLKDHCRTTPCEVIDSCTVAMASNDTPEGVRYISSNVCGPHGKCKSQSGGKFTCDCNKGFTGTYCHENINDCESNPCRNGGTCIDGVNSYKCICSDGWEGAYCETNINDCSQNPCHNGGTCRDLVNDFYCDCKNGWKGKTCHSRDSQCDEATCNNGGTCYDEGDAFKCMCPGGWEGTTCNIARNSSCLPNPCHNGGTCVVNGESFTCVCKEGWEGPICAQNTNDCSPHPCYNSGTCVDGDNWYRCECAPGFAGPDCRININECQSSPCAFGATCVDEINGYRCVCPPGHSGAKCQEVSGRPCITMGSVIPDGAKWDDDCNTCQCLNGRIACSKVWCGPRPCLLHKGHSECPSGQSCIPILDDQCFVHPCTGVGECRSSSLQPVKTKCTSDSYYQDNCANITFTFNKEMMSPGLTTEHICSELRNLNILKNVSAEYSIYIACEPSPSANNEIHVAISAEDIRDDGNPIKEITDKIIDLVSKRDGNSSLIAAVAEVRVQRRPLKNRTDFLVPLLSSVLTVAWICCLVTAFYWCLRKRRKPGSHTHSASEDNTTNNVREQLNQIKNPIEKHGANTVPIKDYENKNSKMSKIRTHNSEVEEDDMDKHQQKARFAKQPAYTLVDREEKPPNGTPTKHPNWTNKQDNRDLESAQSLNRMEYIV

B1: J1-65D variant 1: humanised/de-immunised J1-65D: J1-65D_VL_1 + J1-65D_VH_1 (antibody, V domains shown)
VH: QVQLVQSGAELKKPGSSVKVSCKASGYTFTDYEMHWVRQAPGQGLEWMGAIQPGGGGTAYNQKFKGRVTLTADKSTSTAYMELSSLRSEDTAVYYCTRRGYDDYPFAYWGQGTLVTVSSASTKGP
VL: DIQMTQSPSSLSASVGDRVTITCRASGNIHNYLAWYQQKPGKAPKLLIYNAKTLADDVPSRFSGSGSGTDYTLTISSLQPEDFATYYCQHFWSAPWTFGGGTKLEIKRT
- % soluble aggregate [1]: 0%
- Blocking of Notch1 binding to cell surface Jagged 1 [2, 3]: X
- Blocking of Notch1 binding to cell surface Jagged 1 [2, 4]: + (Complete blocking)
- Blocking of Notch1 binding to cell surface Jagged 1 [2, 5]: + (Complete blocking)
- Blocking of Notch1 binding to cell surface Jagged 1 [2, 6]: + (Complete blocking)

B2: J1-65D variant 2: humanised/de-immunised J1-65D: J1-65D_VL_1 + J1-65D_VH_2 (antibody, V domains shown)
VH: B1 VH with N61A
VL: B1 VL
- % soluble aggregate [1]: 0%
- Blocking of Notch1 binding to cell surface Jagged 1 [2, 3]: X
- Blocking of Notch1 binding to cell surface Jagged 1 [2, 4]: + (Complete blocking)
- Blocking of Notch1 binding to cell surface Jagged 1 [2, 5]: + (Complete blocking)
- Blocking of Notch1 binding to cell surface Jagged 1 [2, 6]: + (Complete blocking)

B3: J1-65D variant 7: humanised/de-immunised J1-65D: J1-65D_VL_2 + J1-65D_VH_3 (antibody, V domains shown)
VH: B1 VH with L11V, N61A, K65Q
VL: B1 VL with D57A
- % soluble aggregate [1]: 0%
- Blocking of Notch1 binding to cell surface Jagged 1 [2, 3]: X
- Blocking of Notch1 binding to cell surface Jagged 1 [2, 4]: + (Complete blocking)
- Blocking of Notch1 binding to cell surface Jagged 1 [2, 5]: + (Complete blocking)
- Blocking of Notch1 binding to cell surface Jagged 1 [2, 6]: + (Complete blocking)

B8: J1-183D variant 2: humanised/de-immunised J1-183D: J1-183D_VL_1 + J1-183D_VH_2 (antibody, V domains shown)
VH: QVQLVQSGAELKKPGASVKVSCKVSGYAFTDYAIHWIRQAPGQGLEWMGIINTYYGDSKYAQKFQGRVTMTVDTSTSTAYMELSSLRSEDTAVYYCARGYDGFAYWGQGTLVTVSSASTKGP
VL: DIQMTQSPSSLSASVGDRVTITCRTSENIYSYLTWYQQKPGKAPKLLVYNAKILAAGVPSRFSGSGSGTDFTLTISSLQPEDFATYYCQHHYDIPWTFGGGTKLEIKRT
- % soluble aggregate [1]: 3.58%
- Blocking of Notch1 binding to cell surface Jagged 1 [2, 3]: X
- Blocking of Notch1 binding to cell surface Jagged 1 [2, 4]: + (Complete blocking)
- Blocking of Notch1 binding to cell surface Jagged 1 [2, 5]: + (Complete blocking)
- Blocking of Notch1 binding to cell surface Jagged 1 [2, 6]: + (Complete blocking)

B9: J1-65D variant 13: humanised/de-immunised J1-65D: J1-65D_VL_4 + J1-65D_VH_1 (antibody, V domains shown)
VH: QVQLVQSGAELKKPGSSVKVSCKASGYTFTDYEMHWVRQAPGQGLEWMGAIQPGGGGTAYNQKFKGRVTLTADKSTSTAYMELSSLRSEDTAVYYCTRRGYDDYPFAYWGQGTLVTVSS
VL: DIQMTQSPSSLSASVGDRVTITCRASQGIHNYLAWYQQKPGKAPKLLIYNAKTLADAVPSRFSGSGSGTDYTLTISSLQPEDFATYYCQQFWSAPWTFGQGTKLEIK
- % soluble aggregate [1]: 2.82%
- Blocking of Notch1 binding to cell surface Jagged 1 [2, 7]: Partial

B10: J1-65D variant 16: humanised/de-immunised J1-65D: J1-65D_VL_4 + J1-65D_VH_4 (antibody, V domains shown)
VH: B9 VH with L11V, N61A, K65Q, L70I
VL: B9 VL
- % soluble aggregate [1]: 5.60%
- Blocking of Notch1 binding to cell surface Jagged 1 [2, 6]: X
- Blocking of Notch1 binding to cell surface Jagged 1 [2, 7]: Partial

B11: J1-65D variant 15: humanised/de-immunised J1-65D: J1-65D_VL_4 + J1-65D_VH_3 (antibody, V domains shown)
VH: B9 VH with L11V, N61A, K65Q
VL: B9 VL
- % soluble aggregate [1]: 5.29%
- Blocking of Notch1 binding to cell surface Jagged 1 [2, 6]: X
- Blocking of Notch1 binding to cell surface Jagged 1 [2, 7]: Partial

B12: J1-65D variant 14: humanised/de-immunised J1-65D: J1-65D_VL_4 + J1-65D_VH_2 (antibody, V domains shown)
VH: B9 VH with N61A
VL: B9 VL
- % soluble aggregate [1]: 6.61%
- Blocking of Notch1 binding to cell surface Jagged 1 [2, 6]: X
- Blocking of Notch1 binding to cell surface Jagged 1 [2, 7]: Partial

B13: J1-183D chimeric: chimeric antibody with unaltered CDRs: J1-183D_VL + J1-183D_VH (antibody, V domains shown)
VH: QVQLQQPGTELVRPGVSVKISCKVSGYAFTDYAIHWIMQSHAKSLEWIGIINTYYGDSKYNQKFKDKATMTVDKSSNTAYMELARLTSEDSAIYYCARGYDGFAYWGQGTLVTVSS
VL: DIQLTQSPASLSASVGETVTFTCRTSENIYSYLTWYQQKQGKSPQLLVYNAKILAAGVPSRFSGYGSGTQFSLKINSLQPEDFGTYYCQHHYDIPWTFGGGTKLEIK
- % soluble aggregate [1]: 1.41%
- Blocking of Notch1 binding to cell surface Jagged 1 [2, 3]: X
- Blocking of Notch1 binding to cell surface Jagged 1 [2, 4]: + (Complete blocking)
- Blocking of Notch1 binding to cell surface Jagged 1 [2, 5]: + (Complete blocking)
- Blocking of Notch1 binding to cell surface Jagged 1 [2, 6]: + (Complete blocking)

The next lines start with results.

- Blocking of Notch1 binding to cell surface Jagged 1 [2, 3]: X
- Blocking of Notch1 binding to cell surface Jagged 1 [2, 4]: + (Complete blocking)
- Blocking of Notch1 binding to cell surface Jagged 1 [2, 5]: + (Complete blocking)
- Blocking of Notch1 binding to cell surface Jagged 1 [2, 6]: + (Complete blocking)
B4: J1-65D variant 10: humanised/de-immunised J1-65D: J1-65D_VL_3 + J1-65D_VH_2 (antibody, V domains shown)
VH: B1 VH with N61A
VL: B1 VL with D57A, G100Q
- % soluble aggregate [1]: 0.59%

- Blocking of Notch1 binding to cell surface Jagged 1 [2, 3]: X
- Blocking of Notch1 binding to cell surface Jagged 1 [2, 4]: + (Complete blocking)
- Blocking of Notch1 binding to cell surface Jagged 1 [2, 5]: + (Complete blocking)
- Blocking of Notch1 binding to cell surface Jagged 1 [2, 6]: + (Complete blocking)
B5: J1-65D variant 6: humanised/de-immunised J1-65D: J1-65D_VL_2 + J1-65D_VH_2 (antibody, V domains shown)
VH: B1 VH with N61A
VL: B1 VL with D57A
- % soluble aggregate [1]: 0%

- Blocking of Notch1 binding to cell surface Jagged 1 [2, 3]: X
- Blocking of Notch1 binding to cell surface Jagged 1 [2, 4]: + (Complete blocking)
- Blocking of Notch1 binding to cell surface Jagged 1 [2, 5]: + (Complete blocking)
- Blocking of Notch1 binding to cell surface Jagged 1 [2, 6]: + (Complete blocking)
B6: J1-65D variant 3: humanised/de-immunised J1-65D: J1-65D_VL_1 + J1-65D_VH_3 (antibody, V domains shown)
VH: B1 VH with L11V, N61A, K65Q
VL: B1 VL
- % soluble aggregate [1]: 1.67%

- Blocking of Notch1 binding to cell surface Jagged 1 [2, 3]: X
- Blocking of Notch1 binding to cell surface Jagged 1 [2, 4]: + (Complete blocking)
- Blocking of Notch1 binding to cell surface Jagged 1 [2, 5]: + (Complete blocking)
- Blocking of Notch1 binding to cell surface Jagged 1 [2, 6]: + (Complete blocking)
B7: J1-65D variant 11: humanised/de-immunised J1-65D: J1-65D_VL_3 + J1-65D_VH_3 (antibody, V domains shown)
VH: B1 VH with L11V, N61A, K65Q
VL: B1 VL with D57A, G100Q
- % soluble aggregate [1]: 1.00%
